Consider 19 molecules from patent publication US20130129739A1 (Bayer, published 2013).

To fix the notation:
B1: 005-C04-29-17-3 (Fab, V domains shown)
VH: EVQLLESGGGLVQPGGSLRLSCAASGFTFSSYWMHWVRQAPGKGLEWVSDISSASSYTNYADSVKGRFTISRDNSKNTLYLQMNSLRAEDTAVYYCARGLDARRMDYWGQGTLVTVTS
VL: QSVLTQPPSASGTPGQRVTISCTGSSSNIGAGYVVHWYQQLPGTAPKLLIYRNNQRPSGVPDRFSGSKSGTSASLAISGLRSEDEADYYCAAWDDSLFGWLFGGGTKLTVLG
notes: Maturated 005-C04 variant; Fab in E. coli supernatant, flag-detected
B2: 005-C04-52-29-0 (Fab, V domains shown)
VH: EVQLLESGGGLVQPGGSLRLSCAASGFTFSSYWMHWVRQAPGKGLEWVSDISWASSYTNYADSVKGRFTISRDNSKNTLYLQMNSLRAEDTAVYYCARGLDARRMDYWGQGTLVTVTS
VL: QSVLTQPPSASGTPGQRVTISCTGSSSNIGAGYVVHWYQQLPGTAPKLLIYRNNQRPSGVPDRFSGSKSGTSASLAISGLRSEDEADYYCAAWDDSLNGWLFGGGTKLTVLG
notes: as for B1
B3: 005-C04-50-28-3 (Fab, V domains shown)
VH: EVQLLESGGGLVQPGGSLRLSCAASGFTFSSYWMHWVRQAPGKGLEWVSDRSSASSYTNYADSVKGRFTISRDNSKNTLYLQMNSLRAEDTAVYYCARGLDARRMDYWGQGTLVTVTS
VL: QSVLTQPPSASGTPGQRVTISCTGSSSNIGAGYVVHWYQQLPGTAPKLLIYRNNQRPSGVPDRFSGSKSGTSASLAISGLRSEDEADYYCAAWDDSLNGWLFGGGTKLTVLG
notes: as for B1
B4: 005-C04-L2-1-2-3 (Fab, V domains shown)
VH: EVQLLESGGGLVQPGGSLRLSCAASGFTFSSYWNHWVRQAPGKGLEWVSDMARASPYTGYADSVKGRFTISRDNSKNTLYLQMNSLRAEDTAVYYCARGLDARRMDYWGQGTLVTVTS
VL: QSVLTQPPSASGTPGQRVTISCTGSSSNIGAGYVVHWYQQLPGTAPKLLIYRNNWRPSGVPDRFSGSKSGTSASLAISGLRSEDEADYYCAAWDDSLNGWLFGGGTKLTVLG
notes: as for B1
B5: 005-C04-44-25-1 (Fab, V domains shown)
VH: EVQLLESGGGLVQPGGSLRLSCAASGFTFSSYWNHWVRQAPGKGLEWVSDISSASSYTNYADSVKGRFTISRDNSKNTLYLQMNSLRAEDTAVYYCARGLDARRMDYWGQGTLVTVTS
VL: QSVLTQPPSASGTPGQRVTISCTGSSSNIGAGYVVHWYQQLPGTAPKLLIYRNNQRPSGVPDRFSGSKSGTSASLAISGLRSEDEADYYCAAWDDSLNGWLFGGGTKLTVLG
notes: as for B1
B6: 005-C04-58-33-1 (Fab, V domains shown)
VH: EVQLLESGGGLVQPGGSLRLSCAASGFTFSSYWMHWVRQAPGKGLEWVSDISSASSYTGYADSVKGRFTISRDNSKNTLYLQMNSLRAEDTAVYYCARGLDARRMDYWGQGTLVTVTS
VL: QSVLTQPPSASGTPGQRVTISCTGSSSNIGAGYVVHWYQQLPGTAPKLLIYRNNQRPSGVPDRFSGSKSGTSASLAISGLRSEDEADYYCAAWDDSLNGWLFGGGTKLTVLG
notes: as for B1
B7: 005-C04-53-31-7 (Fab, V domains shown)
VH: EVQLLESGGGLVQPGGSLRLSCAASGFTFSSYWMHWVRQAPGKGLEWVSDISSLSSYTNYADSVKGRFTISRDNSKNTLYLQMNSLRAEDTAVYYCARGLDARRMDYWGQGTLVTVTS
VL: QSVLTQPPSASGTPGQRVTISCTGSSSNIGAGYVVHWYQQLPGTAPKLLIYRNNQRPSGVPDRFSGSKSGTSASLAISGLRSEDEADYYCAAWDDSLNGWLFGGGTKLTVLG
notes: as for B1
B8: 005-C04-37-2 (Fab, V domains shown)
VH: EVQLLESGGGLVQPGGSLRLSCAASGFTFSSYWWHWVRQAPGKGLEWVSDISSLSSYTGYADSVKGRFTISRDNSKNTLYLQMNSLRAEDTAVYYCARGLDARRMDYWGQGTLVTVTS
VL: QSVLTQPPSASGTPGQRVTISCTGSSSNIGYGYVVHWYQQLPGTAPKLLIYRNNWRPSGVPDRFSGSKSGTSASLAISGLRSEDEADYYCAAWDDSLNGWLFGGGTKLTVLG
notes: as for B1
B9: 005-C04-37-7 (Fab, V domains shown)
VH: EVQLLESGGGLVQPGGSLRLSCAASGFTFSSYWWHWVRQAPGKGLEWVSDISSLSSYTGYADSVKGRFTISRDNSKNTLYLQMNSLRAEDTAVYYCARGLDARRMDYWGQGTLVTVTS
VL: QSVLTQPPSASGTPGQRVTISCTGSSSNIGYGYVVHWYQQLPGTAPKLLIYRNNWRPSGVPDRFSGSKSGTSASLAISGLRSEDEADYYCAAWDDSLNGWLFGGGTKLTVLG
notes: as for B1
B10: 005-C04-29-17-7 (Fab, V domains shown)
VH: EVQLLESGGGLVQPGGSLRLSCAASGFTFSSYWMHWVRQAPGKGLEWVSDISSASSYTNYADSVKGRFTISRDNSKNTLYLQMNSLRAEDTAVYYCARGLDARRMDYWGQGTLVTVTS
VL: QSVLTQPPSASGTPGQRVTISCTGSSSNIGAGYVVHWYQQLPGTAPKLLIYRNNQRPSGVPDRFSGSKSGTSASLAISGLRSEDEADYYCAAWDDSLLGWLFGGGTKLTVLG
notes: as for B1
B11: 005-C04-46-1 (Fab, V domains shown)
VH: EVQLLESGGGLVQPGGSLRLSCAASGFTFSSYWNHWVRQAPGKGLEWVSDMSRLSPYTNYADSVKGRFTISRDNSKNTLYLQMNSLRAEDTAVYYCARGLDARRMDYWGQGTLVTVTS
VL: QSVLTQPPSASGTPGQRVTISCTGSSSNIGYGYVVHWYQQLPGTAPKLLIYRNNVRQSGVPDRFSGSKSGTSASLAISGLRSEDEADYYCAAWDDSLNGWLFGGGTKLTVLG
notes: as for B1
B12: 005-C04-45-1 (Fab, V domains shown)
VH: EVQLLESGGGLVQPGGSLRLSCAASGFTFSSYWNHWVRQAPGKGLEWVSDISRASSYTNYADSVKGRFTISRDNSKNTLYLQMNSLRAEDTAVYYCARGLDARRMDYWGQGTLVTVTS
VL: QSVLTQPPSASGTPGQRVTISCTGSSSNIGYGYVVHWYQQLPGTAPKLLIYRNNVRPSGVPDRFSGSKSGTSASLAISGLRSEDEADYYCAAWDDSLNGWLFGGGTKLTVLG
notes: as for B1
B13: 005-C04-40-4 (Fab, V domains shown)
VH: EVQLLESGGGLVQPGGSLRLSCAASGFTFSSYWNHWVRQAPGKGLEWVSDMARLSSYTNYADSVKGRFTISRDNSKNTLYLQMNSLRAEDTAVYYCARGLDARRMDYWGQGTLVTVTS
VL: QSVLTQPPSASGTPGQRVTISCTGSSSNIGYGYVVHWYQQLPGTAPKLLIYRNNVRQSGVPDRFSGSKSGTSASLAISGLRSEDEADYYCAAWDDSLNGWLFGGGTKLTVLG
notes: as for B1
B14: 005-C04-51-29-0 (Fab, V domains shown)
VH: EVQLLESGGGLVQPGGSLRLSCAASGFTFSSYWMHWVRQAPGKGLEWVSDIASASSYTNYADSVKGRFTISRDNSKNTLYLQMNSLRAEDTAVYYCARGLDARRMDYWGQGTLVTVTS
VL: QSVLTQPPSASGTPGQRVTISCTGSSSNIGAGYVVHWYQQLPGTAPKLLIYRNNQRPSGVPDRFSGSKSGTSASLAISGLRSEDEADYYCAAWDDSLNGWLFGGGTKLTVLG
notes: as for B1
B15: 005-C04-52-29-7 (Fab, V domains shown)
VH: EVQLLESGGGLVQPGGSLRLSCAASGFTFSSYWMHWVRQAPGKGLEWVSDISRASSYTNYADSVKGRFTISRDNSKNTLYLQMNSLRAEDTAVYYCARGLDARRMDYWGQGTLVTVTS
VL: QSVLTQPPSASGTPGQRVTISCTGSSSNIGAGYVVHWYQQLPGTAPKLLIYRNNQRPSGVPDRFSGSKSGTSASLAISGLRSEDEADYYCAAWDDSLNGWLFGGGTKLTVLG
notes: as for B1
B16: 005-C04-36-0 (Fab, V domains shown)
VH: EVQLLESGGGLVQPGGSLRLSCAASGFTFSSYWWHWVRQAPGKGLEWVSDIARASPYTNYADSVKGRFTISRDNSKNTLYLQMNSLRAEDTAVYYCARGLDARRMDYWGQGTLVTVTS
VL: QSVLTQPPSASGTPGQRVTISCTGSSSNIGYGYVVHWYQQLPGTAPKLLIYRNNVRPSGVPDRFSGSKSGTSASLAISGLRSEDEADYYCAAWDDSLNGWLFGGGTKLTVLG
notes: as for B1
B17: 005-C04-55-32-0 (Fab, V domains shown)
VH: EVQLLESGGGLVQPGGSLRLSCAASGFTFSSYWMHWVRQAPGKGLEWVSDISSASPYTNYADSVKGRFTISRDNSKNTLYLQMNSLRAEDTAVYYCARGLDARRMDYWGQGTLVTVTS
VL: QSVLTQPPSASGTPGQRVTISCTGSSSNIGAGYVVHWYQQLPGTAPKLLIYRNNQRPSGVPDRFSGSKSGTSASLAISGLRSEDEADYYCAAWDDSLNGWLFGGGTKLTVLG
notes: as for B1
B18: 005-C04-47-3 (Fab, V domains shown)
VH: EVQLLESGGGLVQPGGSLRLSCAASGFTFSSYWWHWVRQAPGKGLEWVSDISRASPYTNYADSVKGRFTISRDNSKNTLYLQMNSLRAEDTAVYYCARGLDARRMDYWGQGTLVTVTS
VL: QSVLTQPPSASGTPGQRVTISCTGSSSNIGYGYVVHWYQQLPGTAPKLLIYRNNQRPSGVPDRFSGSKSGTSASLAISGLRSEDEADYYCAAWDDSLNGWLFGGGTKLTVLG
notes: as for B1
B19: 005-C04-42-1 (Fab, V domains shown)
VH: EVQLLESGGGLVQPGGSLRLSCAASGFTFSSYWNHWVRQAPGKGLEWVSDISRLSSYTNYADSVKGRFTISRDNSKNTLYLQMNSLRAEDTAVYYCARGLDARRMDYWGQGTLVTVTS
VL: QSVLTQPPSASGTPGQRVTISCTGSSSNIGYGYVVHWYQQLPGTAPKLLIYRNNQRQSGVPDRFSGSKSGTSASLAISGLRSEDEADYYCAAWDDSLNGWLFGGGTKLTVLG
notes: as for B1

In this experiment the target is T1, extracellular domain of human PRLR (monomeric, soluble) (human, UniProt P16471 25-234).
T1 construct: also called ECD-PRLR; ECD of PRLR
T1 sequence: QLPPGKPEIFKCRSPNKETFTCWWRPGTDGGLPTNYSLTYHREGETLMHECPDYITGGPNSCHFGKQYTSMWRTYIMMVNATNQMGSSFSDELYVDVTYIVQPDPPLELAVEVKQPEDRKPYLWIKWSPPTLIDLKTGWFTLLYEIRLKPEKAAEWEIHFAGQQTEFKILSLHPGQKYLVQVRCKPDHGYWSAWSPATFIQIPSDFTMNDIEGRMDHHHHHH
The experiment can be described thus: ELISA: plate coated with human PRLR extracellular domain, Fab-containing E. coli supernatant, anti-flag-HRP, Amplex Red. The method, then:
96 well microtiter plates were coated with 1 μg per milliliter of human PRLR. Plates were incubated over night at 4° C. After blocking with PBS buffer containing 3% bovine serum albumin, normalized E. coli-derived supernatants containing the Fab variants were added. Detection of formed complexes occurred via the addition of an anti-flag antibody (Sigma, A8592) labeled with horseradish peroxidase.
Background: ELISA stands for enzyme-linked immunosorbent assay.
Turning to B1, the binding result is “binds”.

On to B2, for which the binding result was “binds”.

Turning to B3, the binding result is “binds”.

Turning to B4, the binding result is on record as “binds”.

Take B5: the binding result is “binds”.

Regarding B6, the binding result was “binds”.

With B7, the binding result is “binds”.

In the case of B8, the binding result is “binds”.

Consider B9, for which the binding result is on record as “binds”.

On to B10, for which the binding result is reported as “binds”.

In the case of B11, the binding result is “binds”.

With B12, the binding result was “binds”.

With B13, the binding result is recorded as “binds”.

With B14, the binding result is “binds”.

In the case of B15, the binding result is “binds”.

As to B16, the binding result was “binds”.

For the molecule B17, the binding result is listed as “binds”.

Consider B18, for which the binding result is “binds”.

On to B19, for which the binding result is given as “binds”.
